“And” between values parts separate entries of the source, which are not always exact repeats. Equal values may be shown once.
B1: huBC1-IL12 (BC1-IL12 fusion protein of Example 2) (protein, part only; not given: constant regions and IL-12 subunits, not shown: a dimerising Fc or GST)
heavy, part: EVQLVQSGADVKKPGASVKVSCKASGYTFTNYVMHWVRQAPGQGLEWLGYINPYNDGTQYNERFKGRVTMTGDTSISTAYMELSRLTSDDTAVYYCAREVYGNYIWGNWGQGTLVSVSS
light: EIVLTQSPGTLSLSPGERATLSCSASSSISSNYLHWYQQKPGQAPRLLIYRTSNLASGIPDRFSGSGSGTDFTLTISRLEPEDFAVYYCQQGSSIPFTFGQGTKLEIKRTVAAPSVFIFPPSDEQLKSGTASVVCLLNNFYPREAKVQWKVDNALQSGNSQESVTEQDSKDSTYSLSSTLTLSKADYEKHKVYACEVTHQGLSSPVTKSFNRGEC
B2: huBC1 (humanised BC1 antibody, human constant regions) (antibody, V domains shown)
VH: EVQLVQSGADVKKPGASVKVSCKASGYTFTNYVMHWVRQAPGQGLEWLGYINPYNDGTQYNERFKGRVTMTGDTSISTAYMELSRLTSDDTAVYYCAREVYGNYIWGNWGQGTLVSVSS
VL: EIVLTQSPGTLSLSPGERATLSCSASSSISSNYLHWYQQKPGQAPRLLIYRTSNLASGIPDRFSGSGSGTDFTLTISRLEPEDFAVYYCQQGSSIPFTFGQGTKLEIK
notes: Only variable domains are tied to the unfused antibody; also called huBC1 antibody; HuBC1 Ab

Assays:
[1] = target: recombinant oncofoetal fibronectin FN7B89 (Fn MRGS-7B89-HHHHHH) (human); test: SPR kinetics, FN7B89 on chip, bivalent fit
[2] = target: polypeptide including human fibronectin domains 7, ED-B, 8, and 9 (human) (UniProt P02751); test: SPR
Chain of polypeptide including human fibronectin domains 7, ED-B, 8, and 9 (human) (P02751 1173-1538 limits assumed): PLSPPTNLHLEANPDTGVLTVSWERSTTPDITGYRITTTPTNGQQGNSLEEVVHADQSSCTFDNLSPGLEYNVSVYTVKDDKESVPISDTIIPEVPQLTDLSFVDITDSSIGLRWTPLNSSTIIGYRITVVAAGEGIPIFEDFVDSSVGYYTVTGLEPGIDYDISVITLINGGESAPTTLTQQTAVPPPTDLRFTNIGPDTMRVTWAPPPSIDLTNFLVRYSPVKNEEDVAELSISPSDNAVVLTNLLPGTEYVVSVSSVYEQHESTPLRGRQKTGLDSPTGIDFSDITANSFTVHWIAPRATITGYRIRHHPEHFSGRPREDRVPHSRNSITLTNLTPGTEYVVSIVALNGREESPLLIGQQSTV

[3] = target: polypeptide including human fibronectin domains 7, ED-B, 8, and 9 (human) (UniProt P02751); test: SPR, experiment 2
[4] = target: polypeptide including human fibronectin domains 7, ED-B, 8, and 9 (human) (UniProt P02751); test: SPR, against huBC1
[5] = target: polypeptide including human fibronectin domains 7, ED-B, 8, and 9 (human) (UniProt P02751); test: SPR, experiment 1; exp. 1
[6] = target: polypeptide including human fibronectin domains 7, ED-B, 8, and 9 (human) (UniProt P02751); test: SPR, experiment 2; exp. 2
[7] = target: polypeptide including human fibronectin domains 7, ED-B, 8, and 9 (human) (UniProt P02751); test: SPR, experiment 1
[8] = target: T1, polypeptide including human fibronectin domains 7, ED-B, 8, and 9 (human, UniProt P02751 1173-1538, limits assumed); test: SPR, experiment 2; exp. 2
T1 construct: domain: fibronectin domains 7, ED-B, 8, and 9
T1 sequence (P02751 1173-1538 limits assumed): as above

[9] = target: recombinant oncofoetal fibronectin FN7B89 (Fn MRGS-7B89-HHHHHH) (human); test: SPR kinetics, against muBC1
[10] = target: T1, polypeptide including human fibronectin …; test: SPR, experiment 2
[11] = target: T1, polypeptide including human fibronectin …; test: SPR, experiment 1
[12] = target: T1, polypeptide including human fibronectin …; test: SPR, experiment 1; exp. 1

| Molecule | Kd [1] | koff [1] | kon [1] | koff [3] | kon [3] | also measured |
| --- | --- | --- | --- | --- | --- | --- |
| huBC1-huIL12 (humanised BC1 antibody-human IL12 fusion protein) (from UniProt P29460 23-328) | 17.3 nM | 0.00087 s⁻¹ | 50900 M⁻¹ s⁻¹ |  |  |  |
| muBC1 (murine constant regions) (antibody) | 377 nM | 0.00065 s⁻¹ | 1700 M⁻¹ s⁻¹ | 0.0011 s⁻¹ | 1650 M⁻¹ s⁻¹ | Kd [2]: 686 nM |
| huBC1-muIL12 (HuBC1-g1-M1-muIL12) (from UniProt P43431 23-215; P43432 23-335) | 13.9 nM | 0.00109 s⁻¹ | 79500 M⁻¹ s⁻¹ |  |  |  |
| B1 |  |  |  | 0.0016 s⁻¹ | 19000 M⁻¹ s⁻¹ | fold tighter binding than the huBC1 antibody alone [4]: > 10 fold and 16 fold; Kd [5]: 7.6 nM; Kd [6]: 8.3 nM; koff [7]: 0.0013 s⁻¹; kon [7]: 17000 M⁻¹ s⁻¹ |
| B2 | 54 nM | 0.00312 s⁻¹ | 57600 M⁻¹ s⁻¹ |  |  | Kd [8]: 138 nM; fold faster off-rate than muBC1 [9]: 5 fold; fold faster on-rate than muBC1 [9]: 34 fold; koff [10]: 0.01 s⁻¹; kon [10]: 73000 M⁻¹ s⁻¹; koff [11]: 0.0078 s⁻¹; kon [11]: 62000 M⁻¹ s⁻¹; Kd [12]: 125 nM |
